PMC3894748 (2013)

Molecular target: actin (Homo sapiens, UniProt P60709)
Test: Ca2+-ATPase activity inhibition

B1: plasma membrane calcium pump (PMCA) (protein)
chain: MTNPSDRVLPANSMAESREGDFGCTVMELRKLMELRSRDALTQINVHYGGVQNLCSRLKTSPVEGLSGNPADLEKRRQVFGHNVIPPKKPKTFLELVWEALQDVTLIILEIAAIISLVLSFYRPAGEENELCGQVATTPEDENEAQAGWIEGAAILFSVIIVVLVTAFNDWSKEKQFRGLQCRIEQEQKFSIIRNGQLIQLPVAEIVVGDIAQVKYGDLLPADGILIQGNDLKIDESSLTGESDHVKKSLDKDPMLLSGTHVMEGSGRMVVTAVGVNSQTGIILTLLGVNEDDEGEKKKKGKKQGVPENRNKAKTQDGVALEIQPLNSQEGIDNEEKDKKAVKVPKKEKSVLQGKLTRLAVQIGKAGLLMSALTVFILILYFVIDNFVINRRPWLPECTPIYIQYFVKFFIIGITVLVVAVPEGLPLAVTISLAYSVKKMMKDNNLVRHLDACETMGNATAICSDKTGTLTMNRMTVVQAYIGGIHYRQIPSPDVFLPKVLDLIVNGISINSAYTSKILPPEKEGGLPRQVGNKTECALLGFVTDLKQDYQAVRNEVPEEKLYKVYTFNSVRKSMSTVIRNPNGGFRMYSKGASEIILRKCNRILDRKGEAVPFKNKDRDDMVRTVIEPMACDGLRTICIAYRDFDDTEPSWDNENEILTELTCIAVVGIEDPVRPEVPDAIAKCKQAGITVRMVTGDNINTARAIATKCGILTPGDDFLCLEGKEFNRLIRNEKGEVEQEKLDKIWPKLRVLARSSPTDKHTLVKGIIDSTVGEHRQVVAVTGDGTNDGPALKKADVGFAMGIAGTDVAKEASDIILTDDNFTSIVKAVMWGRNVYDSISKFLQFQLTVNVVAVIVAFTGACITQDSPLKAVQMLWVNLIMDTFASLALATEPPTESLLKRRPYGRNKPLISRTMMKNILGHAFYQLIVIFILVFAGEKFFDIDSGRKAPLHSPPSQHYTIVFNTFVLMQLFNEINSRKIHGEKNVFSGIYRNIIFCSVVLGTFICQIFIVEFGGKPFSCTSLSLSQWLWCLFIGIGELLWGQFISAIPTRSLKFLKEAGHGTTKEEITKDAEGLDEIDHAEMELRRGQILWFRGLNRIQTQIDVINTFQTGASFKGVLRRQNMGQHLDVKLVPSSSYIKVVKAFHSSLHESIQKPYNQKSIHSFMTHPEFAIEEELPRTPLLDEEEEENPDKASKFGTRVLLLDGEVTPYANTNNNAVDCNQVQLPQSDSSLQSLETSV
Kd: 680 nM
